Sequences and labels used below:
B3: SpGpsB_(4-63) (domain or fragment, S. pneumoniae R6, UniProt Q8DR57 4-63, looked up)
chain: IIFSAKDIFEQEFGREVRGYNKVEVDEFLDDVIKDYETYAALVKSLRQEIADLKEELTRK
notes: GpsB, Streptococcus pneumoniae R6, residues 4-63; also called slightly truncated form of the N-terminal domain of SpGpsB; source: E. coli, purified (Ni-NTA, TEV, Superdex 75); not shown: His6, N-terminal, cleaved
B4: full-length BsGpsB (Bacillus subtilis GpsB) (natural protein, B. subtilis, UniProt P0CI74 1-98, looked up)
chain: MLADKVKLSAKEILEKEFKTGVRGYKQEDVDKFLDMIIKDYETFHQEIEELQQENLQLKKQLEEASKKQPVQSNTTNFDILKRLSNLEKHVFGSKLYD
notes: GpsB, Bacillus subtilis; purification of the full-length protein is not described here; source: E. coli BL21(DE3) used for recombinant protein production)

“Also recorded” adds a separate entry of the source. No end group written: not given here. Where only a bound is given, the exact number is not on record here.

The target in data set [1] is T1, full-length BsPBP1 (Bacillus subtilis PBP1) (B. subtilis, UniProt P39793 1-914).
T1 construct: also called wild-type BsPBP1; source: E. coli, purified from membrane pellets (His select resin, thrombin, Superdex S200)
T1 sequence (looked up): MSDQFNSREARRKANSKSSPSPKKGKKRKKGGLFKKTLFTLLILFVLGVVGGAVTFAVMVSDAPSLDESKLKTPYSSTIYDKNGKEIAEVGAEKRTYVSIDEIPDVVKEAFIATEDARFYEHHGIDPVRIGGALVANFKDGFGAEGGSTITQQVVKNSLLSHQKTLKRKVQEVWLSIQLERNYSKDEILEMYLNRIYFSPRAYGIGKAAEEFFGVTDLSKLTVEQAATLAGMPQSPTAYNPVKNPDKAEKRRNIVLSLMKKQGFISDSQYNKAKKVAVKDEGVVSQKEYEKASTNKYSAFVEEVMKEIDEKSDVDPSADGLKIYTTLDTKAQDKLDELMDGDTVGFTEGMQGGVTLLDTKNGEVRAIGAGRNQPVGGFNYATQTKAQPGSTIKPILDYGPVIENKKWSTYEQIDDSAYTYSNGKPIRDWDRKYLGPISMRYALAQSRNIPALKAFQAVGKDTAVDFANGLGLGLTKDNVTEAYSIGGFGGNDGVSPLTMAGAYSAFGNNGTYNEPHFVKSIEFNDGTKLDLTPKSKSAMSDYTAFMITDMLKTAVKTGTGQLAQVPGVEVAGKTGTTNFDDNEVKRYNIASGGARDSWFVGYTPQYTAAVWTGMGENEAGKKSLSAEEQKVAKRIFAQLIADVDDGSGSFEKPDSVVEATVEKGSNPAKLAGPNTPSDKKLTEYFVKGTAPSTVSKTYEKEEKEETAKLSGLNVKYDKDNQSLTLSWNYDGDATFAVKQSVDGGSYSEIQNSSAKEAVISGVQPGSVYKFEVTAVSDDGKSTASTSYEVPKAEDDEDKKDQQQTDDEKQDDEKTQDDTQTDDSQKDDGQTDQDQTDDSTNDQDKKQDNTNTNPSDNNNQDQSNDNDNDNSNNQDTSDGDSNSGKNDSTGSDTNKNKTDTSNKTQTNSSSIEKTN
Briefly: SPR. The note with it: both partners purified.

The target of the data set “SpGpsB_(4-63)” is B3. The data set can be described thus: crystal structure; co-crystallisation of GpsB N-terminal domain with PBP peptide, 1:5 molar ratio protein:peptide, room temperature. The note with it: both partners purified.
Data set [2] concerns the molecule itself. Described as above.
Data set [3] concerns the target T1, full-length BsPBP1 (Bacillus subtilis …). The data set can be described thus: SPR; BsPBP1 or BsPBP1_(17-914) immobilised on a CM5 chip (1200 RUs of BsPBP1); BsGpsB injected; 10 mM Tris.HCl pH 8.0, 250 mM NaCl, 0.1% reduced Triton X-100. The note with it: both partners purified. For orientation: In SPR one partner is held on a chip, and binding of the other changes the refractive index at the surface.

The test system of the next data set is BsPBP1_17-914. Briefly: SPR binding to immobilised BsPBP1_17-914. The note with it: chip coated with BsPBP1_17-914, even when 25 µM BsGpsB injected. On the set-up: species or system Bacillus subtilis. The source says:
(§1) BsPBP1 and BsPBP1_17-914 were immobilised on the surface of a CM5 chip (GE Healthcare). For the BsPBP1/YrrSΔ13-16 titration 800 RUs of BsPBP1 were immobilised on the chip surface; for the BsPBP1/BsGpsB titration 1200 RUs of BsPBP1 were immobilised. YrrSΔ13-16, which lacks residues 13–16 in the cytoplasmic domain, was used in these experiments to minimise non-specific interactions with the chip matrix; binding of YrrSΔ13-16 to the reference surface was negligible and the deletion of residues 13–16 leaves the GpsB-binding motif intact. The YrrSΔ13-16 titration was carried out in single-cycle mode, without regenerating the surface between successive injections of protein, because harsh reagents were necessary for full surface regeneration.

Another data set concerns the target full-length BsPBP1. The data set can be described thus: SPR binding to immobilised full-length BsPBP1. On the set-up: species or system Bacillus subtilis.
Excerpt: as §1

Data set [4] concerns the target T2, SpPBP2a_(23-45)^Arg31Lys,Arg33Lys, TAMRA-labelled (S. pneumoniae R6, UniProt Q8DNB6 23-45, Gly43 to cysteine | Arg31Lys | Arg33Lys, TAMRA (maleimide) label).
T2 construct: also called SpPBP2a^Arg31Lys,Arg33Lys; source: E. coli, His-tagged MBP fusion purified (Ni-NTA), labelled, TEV-cleaved, ultrafiltration
T2 peptide: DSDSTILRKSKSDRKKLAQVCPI
The data set can be described thus: fluorescence polarisation. The note with it: both partners purified. (Polarisation of emitted light reports the rotation of a fluorescent probe.)

In data set [5] the target is T3, SpPBP2a_(23-45)^Arg31Lys, TAMRA-labelled (S. pneumoniae R6, UniProt Q8DNB6 23-45, Gly43 to cysteine | Arg31Lys, TAMRA (maleimide) label).
T3 construct: also called SpPBP2a^Arg31Lys; source: E. coli, His-tagged MBP fusion purified (Ni-NTA), labelled, TEV-cleaved, ultrafiltration
T3 peptide: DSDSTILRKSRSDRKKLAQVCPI
The data set can be described thus: fluorescence polarisation. The note with it: both partners purified.

Data set [6] concerns the target Fluorescein-SpPBP2b1-17 (S. pneumoniae R6). Briefly: fluorescence polarisation; GpsB protein titrated into TAMRA- or fluorescein-labelled peptide; 10 mM Tris.HCl pH 8.0, 250 mM NaCl, 0.1% reduced Triton X-100; all data fitted to a 1:1 interaction model, Kd ± standard error.
Data set [7] deals with T4, SpPBP2a_(23-45), TAMRA-labelled (S. pneumoniae R6, UniProt Q8DNB6 23-45, Gly43 to cysteine, TAMRA (maleimide) label).
T4 construct: source: E. coli, His-tagged MBP fusion purified (Ni-NTA), labelled, TEV-cleaved, ultrafiltration
T4 peptide: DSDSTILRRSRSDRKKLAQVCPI
The data set can be described thus: fluorescence polarisation. The note with it: both partners purified.

For the next data set, the target named is T5, BsGpsB_(1-68) (B. subtilis, UniProt P0CI74 1-68).
T5 construct: GpsB, Bacillus subtilis, residues 1-68; also called N-terminal domain of BsGpsB; source: E. coli, purified (Ni-NTA, thrombin, size exclusion)
T5 sequence (looked up): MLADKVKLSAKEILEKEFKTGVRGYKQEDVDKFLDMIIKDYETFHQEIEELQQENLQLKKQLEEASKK
Briefly: fluorescence polarisation; GpsB protein titrated into fluorescently labelled peptide; 10 mM Tris.HCl pH 8.0, 250 mM NaCl, 0.1% reduced Triton X-100; fit to a 1:1 interaction model. The note with it: both partners purified.

In data set [8] the target is B4. The description is as above. The note with it: both partners purified.

B1: BsYrrS_(Δ13-16) (natural protein)
chain: MSNNQSRYENRDANLVLNILIAIVSILIVVVAANLFINSPSSKDVSKDSETAQKQESPASGKTEKKSDEDIKDSKKDTSDSEKDSEKSSDSDSKKDDSSSKKDDSDSDSSSDSAGDGLKDAKVTEGGSSSDVEKTYENPDWKAVGTEQTGEHAATYDSSSQDWAEMLKAISYATGVSTDNMTVLWLGNNGSPQDAKGKILDKATGNKYQVTITWVDEKGWKPTKVEKLK
notes: source: E. coli BL21(DE3), purified from membranes (Ni-NTA, Superdex 200)
Molecule B1 returned a Kd in data set [1] of 20 nM.

B2: SpPBP2a_(27-40) (peptide, UniProt Q8DNB6 27-40, looked up)
peptide: TILRRSRSDRKKLA
notes: PBP2a, Streptococcus pneumoniae, residues 27-40; also called 14-residue peptide of SpPBP2a; source: synthetic peptide
Regarding B2, the binding result in the data set with SpGpsB_(4-63) is recorded as “binds”.

Turning to B3, in data set [2], the binding result was “binds”.

As for B4, in data set [3], the binding result is “binds”. Moreover, the “SPR binding (in words)” value with BsPBP1_17-914 is given as “does not interact; also recorded: no interaction”; with full-length BsPBP1 (chip coated with wild-type BsPBP1 (1200 RU), submicromolar BsGpsB), “submicromolar concentrations of BsGpsB bound to chips coated with the wild-type BsPBP1”. Further, at full-length BsPBP1 (SPR, PBP1-coated chip, full-length GpsB data fit 1:1 only over limited concentration range (avidity), BsGpsB1-68 supports 1:1, peer review file, read-out: affinity / Kd by SPR), the Kd was 700 nM.

B5: SpGpsB_(1-63) (domain or fragment)
chain: MASIIFSAKDIFEQEFGREVRGYNKVEVDEFLDDVIKDYETYAALVKSLRQEIADLKEELTRK
notes: GpsB, Streptococcus pneumoniae R6, residues 1-63 (stop codon in place of Pro64); also called N-terminal domain of SpGpsB; wildtype SpGpsB_(1-63); source: E. coli, purified (Ni-NTA, thrombin, ammonium sulphate precipitation, gel filtration)
Consider B5, for which the “fold reduction in affinity against wild type” value in [4] was > 25 fold; in data set [5] it was 2 fold. In addition, in [6], the Kd is > 3.6 mM.

B6: SpGpsB_(1-63)^Asp33Ala (domain or fragment)
chain: MASIIFSAKDIFEQEFGREVRGYNKVEVDEFLADVIKDYETYAALVKSLRQEIADLKEELTRK
notes: also called SpGpsB^Asp33Ala; source: E. coli, purified (Ni-NTA, thrombin, ammonium sulphate precipitation, gel filtration)
For B6, the “fold reduction in affinity against wild type” value in [7] is ~40 fold.

B7: BsPBP1_(1-32), TAMRA-labelled at position 16 (peptide, UniProt P39793 1-32, looked up)
peptide: MSDQFNSREARRKANC(TAMRA (maleimide))KSSPSPKKGKKRKKGG
notes: PBP1, Bacillus subtilis, residues 1-32; also called BsPBPA1_(1-32); BsPBP1A_(1-32); source: E. coli, His-tagged MBP fusion purified (Ni-NTA), labelled, TEV-cleaved, ultrafiltration
With B7, the binding result (in the data set with BsGpsB_(1-68); in data set [8]) was “binds” each time.

(Values after article PMC6335420, “The cell cycle regulator GpsB functions as cytosolic adaptor for multiple cell wall enzymes” (Nature Communications, 2019).)
